Experimental data from patent US20220372155A1 (LYVGEN BIOPHARMA, published 2022).

Assays:
[1] = target: T1, Human PD-L1 ECD protein (mouse IgG2a Fc tag) (human, UniProt Q9NZQ7 19-238); assay: bridging ELISA, coated CD40 ECD-His, soluble PD-L1 ECD-mFc
T1 construct: extracellular domain; also called recombinant human PD-L1; not shown: mouse IgG2a Fc tag

[2] = target: T2, Ly090 (human CD40 ECD protein with His tag) (human, UniProt P25942 21-193); assay: as above
T2 construct: extracellular domain; also called human CD40 ECD protein (His tag); recombinant human CD40; not shown: His tag
T2 sequence (P25942 21-193): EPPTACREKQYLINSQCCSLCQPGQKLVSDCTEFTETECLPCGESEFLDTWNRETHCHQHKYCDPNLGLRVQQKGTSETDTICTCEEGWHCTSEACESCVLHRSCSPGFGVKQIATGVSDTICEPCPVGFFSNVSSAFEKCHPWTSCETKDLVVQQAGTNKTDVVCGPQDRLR

[3] = target: T3, human PD-L1 expressed on CHO cells (human, UniProt Q9NZQ7 19-290); assay: FACS, CHO cells
T3 construct: whole, on cells; also used for human PD-L1 on Raji cells in the reporter assay; also called cell surface PD-L1; Raji-PD-L1 cells
T3 sequence (Q9NZQ7 19-290): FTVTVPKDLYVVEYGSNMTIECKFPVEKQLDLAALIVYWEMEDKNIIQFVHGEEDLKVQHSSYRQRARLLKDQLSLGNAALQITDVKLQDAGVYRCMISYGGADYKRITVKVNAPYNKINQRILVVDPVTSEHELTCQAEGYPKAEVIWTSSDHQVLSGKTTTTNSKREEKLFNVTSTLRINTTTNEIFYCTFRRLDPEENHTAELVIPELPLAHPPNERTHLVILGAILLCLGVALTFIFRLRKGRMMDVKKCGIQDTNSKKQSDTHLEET

[4] = target: T4, human CD40 expressed on CHO cells (human, UniProt P25942 21-277); assay: FACS, CHO cells
T4 construct: whole, on cells; also used for the reporter cells over-expressing human CD40; also called cellular CD40; CHO-CD40 cells
T4 sequence (P25942 21-277): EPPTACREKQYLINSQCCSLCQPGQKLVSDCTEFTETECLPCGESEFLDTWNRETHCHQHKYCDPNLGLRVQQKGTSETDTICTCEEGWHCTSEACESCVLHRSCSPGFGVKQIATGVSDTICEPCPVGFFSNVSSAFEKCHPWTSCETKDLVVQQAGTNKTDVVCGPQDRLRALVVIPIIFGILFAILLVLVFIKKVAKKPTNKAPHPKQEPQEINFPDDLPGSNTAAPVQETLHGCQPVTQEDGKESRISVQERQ

Measured: binding result

T1 sequence (Q9NZQ7 19-238): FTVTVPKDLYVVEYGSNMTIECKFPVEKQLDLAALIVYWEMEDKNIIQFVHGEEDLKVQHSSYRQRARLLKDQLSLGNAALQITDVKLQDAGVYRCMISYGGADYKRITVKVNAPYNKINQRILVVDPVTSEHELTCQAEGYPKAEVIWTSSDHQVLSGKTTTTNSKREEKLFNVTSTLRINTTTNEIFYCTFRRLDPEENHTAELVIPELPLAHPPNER

B1: Ly303 (bispecific antibody, human IgG1, kappa)
heavy: QVQLVQSGAEVKKPGASVKVSCKASGYTFTDFWMSWVRQAPGQGLEWMGQIYPNTGTTHSNEKFKGRVTMTRDTSTSTVYMELSSLRSEDTAVYYCARSYHISTTPNWFAYWGQGTLVTVSSASTKGPSVFPLAPSSKSTSGGTAALGCLVKDYFPEPVTVSWNSGALTSGVHTFPAVLQSSGLYSLSSVVTVPSSSLGTQTYICNVNHKPSNTKVDKKVEPKSCDKTHTCPPCPAPELLGPSVFLFPPKPKDTLMISRTPEVTCVVVDVSHEDPEVKFNWYVDGVEVHNAKTKPREEQYNSTYRVVSVLTVLHQDWLNGKEYKCKVSNKALPAPIEKTISKAKGQPREPQVYTLPPSREEMTKNQVSLTCLVKGFYPSDIAVEWESNGQPENNYKTTPPVLDSDGSFFLYSKLTVDKSRWQQGNVFSCSVMHEALHNHYTQKSLSLSPGGGGGSGGGGSGGGGSGGGGSDIQMTQSPSSLSASVGDRVTITCLASEDISNDLAWYQQKPGKAPKLLIYFVDRLLDGVPSRFSGSGSGTDFTLTISSLQPEDFATYYCQQSYKYPPTFGQGTKLEIKGGGGSGGGGSGGGGSGGGGSEVQLVESGGGLVQPGGSLRLSCAASGFTFTNYGLHWVRQAPGKGLEWVSSISPSGGVTYYRDSVKGRFTISRDNSKNTLYLQMNSLRAEDTAVYYCAKPFLGWGGANWIAHWGQGTLVTVSS
light: DIQMTQSPSSLSASVGDRVTITCKASQNVYKKLEWYQQKPGKVPKVLIYHTNILQTGVPSRFSGSGSGTDYTLTISSLQPEDVATYYCYQWNSGPTFGGGTKVEIKRTVAAPSVFIFPPSDEQLKSGTASVVCLLNNFYPREAKVQWKVDNALQSGNSQESVTEQDSKDSTYSLSSTLTLSKADYEKHKVYACEVTHQGLSSPVTKSFNRGEC
notes: Ly076 HC (IgG1 mutated Fc)-TM559 scFv VL-VH + Ly076 LC
binds: all assays above

B2: Ly340 (bispecific antibody, human IgG1, kappa)
heavy: QVQLVQSGAEVKKPGASVKVSCKASGYTFTDFWMSWVRQAPGQGLEWMGQIYPNTGTTHSNEKFKGRVTMTRDTSTSTVYMELSSLRSEDTAVYYCARSYHISTTPNWFAYWGQGTLVTVSSASTKGPSVFPLAPSSKSTSGGTAALGCLVKDYFPEPVTVSWNSGALTSGVHTFPAVLQSSGLYSLSSVVTVPSSSLGTQTYICNVNHKPSNTKVDKKVEPKSCDKTHTCPPCPAPELLGPSVFLFPPKPKDTLMISRTPEVTCVVVDVSHEDPEVKFNWYVDGVEVHNAKTKPREEQYNSTYRVVSVLTVLHQDWLNGKEYKCKVSNKALPAPIEKTISKAKGQPREPQVYTLPPSREEMTKNQVSLTCLVKGFYPSDIAVEWESNGQPENNYKTTPPVLDSDGSFFLYSKLTVDKSRWQQGNVFSCSVMHEALHNHYTQKSLSLSPGGGGGSGGGGSGGGGSGGGGSEVQLVESGGGLVQPGGSLRLSCAASGFTFTNYGLHWVRQAPGKGLEWVSSISPSGGVTYYRDSVKGRFTISRDNSKNTLYLQMNSLRAEDTAVYYCAKPFLGWGGANWIAHWGQGTLVTVSSGGGGSGGGGSGGGGSGGGGSDIQMTQSPSSLSASVGDRVTITCLASEDISNDLAWYQQKPGKAPKLLIYFVDRLLDGVPSRFSGSGSGTDFTLTISSLQPEDFATYYCQQSYKYPPTFGQGTKLEIK
light: DIQMTQSPSSLSASVGDRVTITCKASQNVYKKLEWYQQKPGKVPKVLIYHTNILQTGVPSRFSGSGSGTDYTLTISSLQPEDVATYYCYQWNSGPTFGGGTKVEIKRTVAAPSVFIFPPSDEQLKSGTASVVCLLNNFYPREAKVQWKVDNALQSGNSQESVTEQDSKDSTYSLSSTLTLSKADYEKHKVYACEVTHQGLSSPVTKSFNRGEC
notes: Ly076 HC (IgG1 mutated Fc)-TM559 scFv VH-VL + Ly076 LC
binds: all assays above

B3: Ly349 (bispecific antibody, human IgG1, kappa)
heavy: QVQLVQSGAEVKKPGASVKVSCKASGYTFTDFWMSWVRQAPGQGLEWMGQIYPNTGTTHSNEKFKGRVTMTRDTSTSTVYMELSSLRSEDTAVYYCARSYHISTTPNWFAYWGQGTLVTVSSASTKGPSVFPLAPSSKSTSGGTAALGCLVKDYFPEPVTVSWNSGALTSGVHTFPAVLQSSGLYSLSSVVTVPSSSLGTQTYICNVNHKPSNTKVDKKVEPKSCDKTHTCPPCPAPELLGPSVFLFPPKPKDTLMISRTPEVTCVVVDVSHEDPEVKFNWYVDGVEVHNAKTKPREEQYNSTYRVVSVLTVLHQDWLNGKEYKCKVSNKALPAPIEKTISKAKGQPREPQVYTLPPSREEMTKNQVSLTCLVKGFYPSDIAVEWESNGQPENNYKTTPPVLDSDGSFFLYSKLTVDKSRWQQGNVFSCSVMHEALHNHYTQKSLSLSPG
light: DIQMTQSPSSLSASVGDRVTITCKASQNVYKKLEWYQQKPGKVPKVLIYHTNILQTGVPSRFSGSGSGTDYTLTISSLQPEDVATYYCYQWNSGPTFGGGTKVEIKRTVAAPSVFIFPPSDEQLKSGTASVVCLLNNFYPREAKVQWKVDNALQSGNSQESVTEQDSKDSTYSLSSTLTLSKADYEKHKVYACEVTHQGLSSPVTKSFNRGECGGGGSGGGGSGGGGSGGGGSDIQMTQSPSSLSASVGDRVTITCKASQNIYIYLNWYQQKPGKAPKLLIYNTNNLQTGVPSRFSGSGSGTDFTLTISSLQPEDFATYYCLQHSSRRTFGGGTKVEIKGGGGSGGGGSGGGGSGGGGSQVQLVESGGGLVQPGGSLKLSCATSGFNFNDYFMNWVRQASGKGLEWVGQIRNKNYNYATYYTESLEGRVTISRDDSKNTAYLQMNSLKTEDTAVYYCTSYYYDGFADYFDYWGQGTTVTVSS
notes: Ly076 HC (IgG1 mutated Fc) + Ly076 LC-TM740 scFv VL-VH
binds: all assays above

B4: Ly339 (bispecific antibody, human IgG1, kappa)
heavy: QVQLVQSGAEVKKPGASVKVSCKASGYTFTDFWMSWVRQAPGQGLEWMGQIYPNTGTTHSNEKFKGRVTMTRDTSTSTVYMELSSLRSEDTAVYYCARSYHISTTPNWFAYWGQGTLVTVSSASTKGPSVFPLAPSSKSTSGGTAALGCLVKDYFPEPVTVSWNSGALTSGVHTFPAVLQSSGLYSLSSVVTVPSSSLGTQTYICNVNHKPSNTKVDKKVEPKSCDKTHTCPPCPAPELLGPSVFLFPPKPKDTLMISRTPEVTCVVVDVSHEDPEVKFNWYVDGVEVHNAKTKPREEQYNSTYRVVSVLTVLHQDWLNGKEYKCKVSNKALPAPIEKTISKAKGQPREPQVYTLPPSREEMTKNQVSLTCLVKGFYPSDIAVEWESNGQPENNYKTTPPVLDSDGSFFLYSKLTVDKSRWQQGNVFSCSVMHEALHNHYTQKSLSLSPG
light: DIQMTQSPSSLSASVGDRVTITCKASQNVYKKLEWYQQKPGKVPKVLIYHTNILQTGVPSRFSGSGSGTDYTLTISSLQPEDVATYYCYQWNSGPTFGGGTKVEIKRTVAAPSVFIFPPSDEQLKSGTASVVCLLNNFYPREAKVQWKVDNALQSGNSQESVTEQDSKDSTYSLSSTLTLSKADYEKHKVYACEVTHQGLSSPVTKSFNRGECGGGGSGGGGSGGGGSGGGGSQVQLVESGGGLVQPGGSLKLSCATSGFNFNDYFMNWVRQASGKGLEWVGQIRNKNYNYATYYTESLEGRVTISRDDSKNTAYLQMNSLKTEDTAVYYCTSYYYDGFADYFDYWGQGTTVTVSSGGGGSGGGGSGGGGSGGGGSDIQMTQSPSSLSASVGDRVTITCKASQNIYIYLNWYQQKPGKAPKLLIYNTNNLQTGVPSRFSGSGSGTDFTLTISSLQPEDFATYYCLQHSSRRTFGGGTKVEIK
notes: Ly076 HC (IgG1 mutated Fc) + Ly076 LC-TM740 scFv VH-VL
binds: all assays above
